# B1: TgCyp18.4 (Toxoplasma gondii VEG) (protein)
# chain: MSVTIKTNLGDLKAELYCQQAPKTCKNFLALCASDYYNGTRFHRNIKGFAIQGGDPTGTGKGGESIYGGLFEDEFVSSLKHDRRGILSMANQGKPNTNGSQFFITYCRQPHLNGVYSVFGRLIDGMDTLDKMEREPVGRKNRPENDIIIEQVIIHANPIAEMDQL
# Substrate: C[C@H](NC(=O)CCC(=O)O)C(=O)N[C@@H](C)C(=O)N1CCC[C@H]1C(=O)N[C@@H](Cc1ccccc1)C(=O)Nc1ccc([N+](=O)[O-])cc1
# Experiment: purified protein, by the assay type
# Format: biochemical, Toxoplasma gondii
# Conditions: other: substrate AAPF, 0 °C, pH 8.0
# Procedure: A trans-isomer is formed by Cyp, which is selectively cleaved by chymotrypsin, producing 4-nitroaniline, a yellow-colored product that can be measured spectrophotometrically.
# The assay was performed in 50 mM Hepes, pH 8, and 100 mM NaCl at 0 °C. […] Once the temperature reached 0 °C, chymotrypsin solution, dissolved in HCl 1 mM, was added at 1.8 mg mL^–1 to start the reaction.
# Successively, Cyp was added in large excess to enhance the cis-to-trans isomerization. The cis population was estimated by the difference between the final and the initial absorbance.
# For all of the experiments, the slope of the catalyzed reaction was corrected for the spontaneous thermal cis–trans isomerization in the presence of the only chymotrypsin.
# All measurements were repeated as triplicate, and the error was calculated as the mean standard error of the three measurements. The error associated with the parameter kcat/Km was propagated in agreement with the following equation eq 1 [drawing 1]
protein,measurement,value
B1,Km,286 ± 39 µM
same,kcat,2.8 ± 0.4 s⁻¹
same,kcat/Km,10000 ± 2000 M⁻¹ s⁻¹

# Reference: PMC9926490, “Structural Basis for Cyclosporin Isoform-Specific Inhibition of Cyclophilins from Toxoplasma gondii” (ACS Infectious Diseases, 2023)
